Experimental data as given in patent US20090209006 (published 2009).

Key:
[1] = target: ZTNF4 (BLyS/BAFF) (human); test: competition, 125I-ZTNF4 binding to TACI-coated plates
[2] = target: ZTNF4 (BLyS/BAFF) (human); test: other, solution radioligand binding with precipitation

B1: TACI (d1-29, d107-154)-Fc5 (protein)
chain: MDAMKRGLCCVLLLCGAVFVSLSQEIHAELRRFRRAMRSCPEEQYWDPLLGTCMSCKTICNHQSQRTCAAFCRSLSCRKEQGKFYDHLLRDCISCASICGQHPKQCAYFCENEPKSSDKTHTCPPCPAPEAEGAPSVFLFPPKPKDTLMISRTPEVTCVVVDVSHEDPEVKFNWYVDGVEVHNAKTKPREEQYNSTYRVVSVLTVLHQDWLNGKEYKCKVSNKALPSSIEKTISKAKGQPREPQVYTLPPSRDELTKNQVSLTCLVKGFYPSDIAVEWESNGQPENNYKTTPPVLDSDGSFFLYSKLTVDKSRWQQGNVFSCSVMHEALHNHYTQKSLSLSPGK
Binder B1 has an IC50 [1] of 4.95 nM and a Kd [2] of 0.121 nM.

B2: TACI (d1-29, d111-154)-Fc5 (protein)
chain: MDAMKRGLCCVLLLCGAVFVSLSQEIHAELRRFRRAMRSCPEEQYWDPLLGTCMSCKTICNHQSQRTCAAFCRSLSCRKEQGKFYDHLLRDCISCASICGQHPKQCAYFCENKLRSEPKSSDKTHTCPPCPAPEAEGAPSVFLFPPKPKDTLMISRTPEVTCVVVDVSHEDPEVKFNWYVDGVEVHNAKTKPREEQYNSTYRVVSVLTVLHQDWLNGKEYKCKVSNKALPSSIEKTISKAKGQPREPQVYTLPPSRDELTKNQVSLTCLVKGFYPSDIAVEWESNGQPENNYKTTPPVLDSDGSFFLYSKLTVDKSRWQQGNVFSCSVMHEALHNHYTQKSLSLSPGK
In the case of B2, the IC50 [1] is reported as 2.31 nM and the Kd [2] is reported as 0.115 nM.

B3: TACI (d1-29)-Fc5 (protein)
chain: MDAMKRGLCCVLLLCGAVFVSLSQEIHAELRRFRRAMRSCPEEQYWDPLLGTCMSCKTICNHQSQRTCAAFCRSLSCRKEQGKFYDHLLRDCISCASICGQHPKQCAYFCENKLRSPVNLPPELRRQRSGEVENNSDNSGRYQGLEHRGSEASPALPGLKEPKSSDKTHTCPPCPAPEAEGAPSVFLFPPKPKDTLMISRTPEVTCVVVDVSHEDPEVKFNWYVDGVEVHNAKTKPREEQYNSTYRVVSVLTVLHQDWLNGKEYKCKVSNKALPSSIEKTISKAKGQPREPQVYTLPPSRDELTKNQVSLTCLVKGFYPSDIAVEWESNGQPENNYKTTPPVLDSDGSFFLYSKLTVDKSRWQQGNVFSCSVMHEALHNHYTQKSLSLSPGK
B3 showed an IC50 [1] of 2.07 nM and a Kd [2] of 0.134 nM.

B4: TACI (d1-29, d120-154)-Fc5 (protein)
chain: MDAMKRGLCCVLLLCGAVFVSLSQEIHAELRRFRRAMRSCPEEQYWDPLLGTCMSCKTICNHQSQRTCAAFCRSLSCRKEQGKFYDHLLRDCISCASICGQHPKQCAYFCENKLRSPVNLPPELREPKSSDKTHTCPPCPAPEAEGAPSVFLFPPKPKDTLMISRTPEVTCVVVDVSHEDPEVKFNWYVDGVEVHNAKTKPREEQYNSTYRVVSVLTVLHQDWLNGKEYKCKVSNKALPSSIEKTISKAKGQPREPQVYTLPPSRDELTKNQVSLTCLVKGFYPSDIAVEWESNGQPENNYKTTPPVLDSDGSFFLYSKLTVDKSRWQQGNVFSCSVMHEALHNHYTQKSLSLSPGK
In the case of B4, the IC50 [1] is reported as 2.21 nM and the Kd [2] is reported as 0.092 nM.
